{
  "source": "patent US20080213836",
  "key": {"[1]": {"system": "T1, Gly-Asp-Asp-Asp-Asp-Lys-β-naphthylamide", "T1 sequence": "GDDDDK"}, "[2]": {"system": "recombinant fusion protein of Medaka trypsinogen"}},
  "data": [
    {"substance": "Medaka EP-2 serine protease domain", "values": [
      {"measurement": "enzyme activity for GD4K-βNA", "setting": "[1]", "value": "Both enzymes showed maximal activities for GD4K-βNA at pH 8"},
      {"measurement": "conversion of trypsinogen to active trypsin", "setting": "[2]", "value": "The trypsinogen was converted to active trypsin by EP-1 faster than by EP-2"}
    ]}
  ]
}
